# Measured values: publication PMC5101189, “Structure of the MIS12 Complex and Molecular Basis of Its Interaction with CENP-C at Human Kinetochores” (Cell, 2016)
# T1: NSL1, full length (subunit of the full-length MIS12C in the KMN assembly) (human, UniProt Q96IY1 1-281)
# T1 sequence (looked up): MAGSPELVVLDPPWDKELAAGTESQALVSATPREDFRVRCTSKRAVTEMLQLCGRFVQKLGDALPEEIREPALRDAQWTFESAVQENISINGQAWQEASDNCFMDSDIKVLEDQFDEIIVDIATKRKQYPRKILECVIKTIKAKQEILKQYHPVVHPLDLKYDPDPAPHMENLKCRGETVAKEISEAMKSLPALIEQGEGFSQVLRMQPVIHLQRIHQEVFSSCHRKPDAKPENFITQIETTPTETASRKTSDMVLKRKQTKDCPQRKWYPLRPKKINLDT
# B1: ZWINT (natural protein, human, UniProt O95229 1-277, looked up)
# chain: MEAAETEAEAAALEVLAEVAGILEPVGLQEEAELPAKILVEFVVDSQKKDKLLCSQLQVADFLQNILAQEDTAKGLDPLASEDTSRQKAIAAKEQWKELKATYREHVEAIKIGLTKALTQMEEAQRKRTQLREAFEQLQAKKQMAMEKRRAVQNQWQLQQEKHLQHLAEVSAEVRERKTGTQQELDRVFQKLGNLKQQAEQERDKLQRYQTFLQLLYTLQGKLLFPEAEAEAENLPDDKPQQPTRPQEQSTGDTMGRDPGVSFKAVGLQPAGDVNLP
# notes: ZWINT, human, subunit of KNL1C in the cross-linked 10-subunit KMN assembly; also called Zwint1
# Biological target: T1, NSL1, full length (subunit of the …)
# Test: cross-linking; 10-subunit KMN assembly with a CENP-C fragment, 45 μg at 1 mg/ml, 650 μM BS3 (d0/d12), 30 min at 37°C; trypsin or AspN digest, tandem mass spectrometry (xQuest)
# Conditions: both partners purified
binder,measurement,value
B1,binding result,binds
